Measurements: article PMC7980222, “Neuronal non-CG methylation is an essential target for MeCP2 function”

What was measured:
[1] = target: T1, MeCP2[N-term] WT (mouse, UniProt Q9Z2D6 1-205); assay: EMSA; 0-4.5 uM protein; not different from mCG (p = 0.613); BLI: 150 mM NaCl, 10 mM HEPES pH 8.0, 0.05% Tween20, poly(dI-dC) 1 ug/ml; MBD2 EMSA: 20 mM HEPES pH 7.9, 150 mM KCl, 8% Ficoll, 1 mM EDTA, 0.5 mM DTT, poly(dI-dC) 40 ng/ul, RT; N-term EMSA: 10 mM Tris-HCl pH 7.5, 150 mM KCl, 5% glycerol, 0.1 mM EDTA, 0.1 mg/ml BSA, 1 ug poly(dA-dT), on ice; pull-down at 4 C; conditions: protein: recombinant; tags: C-terminal 6xHis; label: 32P (T4 PNK); blunt
[2] = target: MM2[N-term] (mouse, UniProt Q9Z2D6 1-93+Q9Z2E1:153-217+165-205, internal_change); assay: EMSA; 0-4.5 uM protein; BLI: 150 mM NaCl, 10 mM HEPES pH 8.0, 0.05% Tween20, poly(dI-dC) 1 ug/ml; MBD2 EMSA: 20 mM HEPES pH 7.9, 150 mM KCl, 8% Ficoll, 1 mM EDTA, 0.5 mM DTT, poly(dI-dC) 40 ng/ul, RT; N-term EMSA: 10 mM Tris-HCl pH 7.5, 150 mM KCl, 5% glycerol, 0.1 mM EDTA, 0.1 mg/ml BSA, 1 ug poly(dA-dT), on ice; pull-down at 4 C; conditions: protein: recombinant; tags: C-terminal 6xHis; label: 32P (T4 PNK); blunt
[3] = target: T1, MeCP2[N-term] WT; assay: as above; conditions: protein: recombinant; tags: C-terminal 6xHis; label: 32P (T4 PNK); blunt
[4] = target: T2, MeCP2[MBD] (mouse (fragment sequence identical in …, UniProt Q9Z2D6 77-167)); assay: BLI; poly(dI-dC) 1 ug/ml; main text prints 63.17; BLI: 150 mM NaCl, 10 mM HEPES pH 8.0, 0.05% Tween20, poly(dI-dC) 1 ug/ml; MBD2 EMSA: 20 mM HEPES pH 7.9, 150 mM KCl, 8% Ficoll, 1 mM EDTA, 0.5 mM DTT, poly(dI-dC) 40 ng/ul, RT; N-term EMSA: 10 mM Tris-HCl pH 7.5, 150 mM KCl, 5% glycerol, 0.1 mM EDTA, 0.1 mg/ml BSA, 1 ug poly(dA-dT), on ice; pull-down at 4 C; conditions: protein: recombinant; tags: pET28 (NdeI/EcoRI), His tag (Ni-NTA purified; tag removal not mentioned); label: 5'-biotin on strand 1; 19 bp, 5' overhang 1 nt each end
[5] = target: T2, MeCP2[MBD]; assay: BLI; poly(dI-dC) 1 ug/ml; BLI: 150 mM NaCl, 10 mM HEPES pH 8.0, 0.05% Tween20, poly(dI-dC) 1 ug/ml; MBD2 EMSA: 20 mM HEPES pH 7.9, 150 mM KCl, 8% Ficoll, 1 mM EDTA, 0.5 mM DTT, poly(dI-dC) 40 ng/ul, RT; N-term EMSA: 10 mM Tris-HCl pH 7.5, 150 mM KCl, 5% glycerol, 0.1 mM EDTA, 0.1 mg/ml BSA, 1 ug poly(dA-dT), on ice; pull-down at 4 C; conditions: protein: recombinant; tags: pET28 (NdeI/EcoRI), His tag (Ni-NTA purified; tag removal not mentioned); label: 5'-biotin on strand 1; 19 bp, 5' overhang 1 nt each end
[6] = target: MBD2[MBD] (human, UniProt Q9UBB5 139-224); assay: EMSA; 2 uM protein; poly(dI-dC); BLI: 150 mM NaCl, 10 mM HEPES pH 8.0, 0.05% Tween20, poly(dI-dC) 1 ug/ml; MBD2 EMSA: 20 mM HEPES pH 7.9, 150 mM KCl, 8% Ficoll, 1 mM EDTA, 0.5 mM DTT, poly(dI-dC) 40 ng/ul, RT; N-term EMSA: 10 mM Tris-HCl pH 7.5, 150 mM KCl, 5% glycerol, 0.1 mM EDTA, 0.1 mg/ml BSA, 1 ug poly(dA-dT), on ice; pull-down at 4 C; conditions: protein: recombinant; tags: N-terminal His6 removed by TEV; residual N-terminal SM; label: 5'-FAM on strand 1; 19 bp, 5' overhang 1 nt each end
Chain of MBD2[MBD] (Q9UBB5 139-224): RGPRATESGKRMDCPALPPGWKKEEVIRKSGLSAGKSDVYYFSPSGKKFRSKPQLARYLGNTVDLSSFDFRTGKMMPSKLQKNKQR

B1: Bdnf mCAC probe (dsDNA)
DNA 1: AAGCATGCAATGCCCTGGAACACAATTCTTCTAATAAAAGATGTATCATTTTAAATGC
DNA 2: GCATTTAAAATGATACATCTTTTATTAGAAGAATTGTGTTCCAGGGCATTGCATGCTT
modifications: 5mC at central CAC: C21 of strand 1 (underlining lost in text)
- binding result [1]: binds
- binding result [2]: no binding

B2: Bdnf mCG probe (dsDNA)
DNA 1: AAGCATGCAATGCCCTGGAACGGAATTCTTCTAATAAAAGATGTATCATTTTAAATGC
DNA 2: GCATTTAAAATGATACATCTTTTATTAGAAGAATTCCGTTCCAGGGCATTGCATGCTT
modifications: 5mC at central CG: C21 of strand 1 and probably C37 of strand 2 (underlining lost in text)
- binding result [3]: binds

B3: BLI mCAT probe (dsDNA)
DNA 1: TCTGGAACATAATTCTTCTA
DNA 2: ATAGAAGAATTATGTTCCAG
modifications: 5mC at CAT: C8 of strand 1 (underlining lost in text)
- Kd [4]: 63.7 nM

B4: BLI mCAC probe (dsDNA)
DNA 1: TCTGGAACACAATTCTTCTA
DNA 2: ATAGAAGAATTGTGTTCCAG
modifications: 5mC at CAC: C8 of strand 1 (underlining lost in text)
- Kd [5]: 13.9 nM

B5: BLI mCG probe (dsDNA)
DNA 1: TCTGGAACGGAATTCTTCTA
DNA 2: ATAGAAGAATTCCGTTCCAG
modifications: 5mC at CG: C8 of strand 1 and probably C13 of strand 2 (underlining lost in text)
- Kd [5]: 22.2 nM

B6: FAM mCG probe (dsDNA)
DNA 1: TCTGGAACGGAATTCTTCTA
DNA 2: ATAGAAGAATTCCGTTCCAG
modifications: 5mC at CG: C8 of strand 1 and probably C13 of strand 2 (underlining lost in text)
- binding result [6]: binds
